± gives the standard deviation of the averaged measurements.
Test: total protein half-life in vivo (active degradation + dilution); higher = more stable protein
[1] = E. coli NCM3722 delta-clpP, growth: N-lim chemostat, doubling time 6 h
[2] = E. coli NCM3722 delta-lon, growth: N-lim chemostat, doubling time 6 h
[3] = wild type E. coli NCM3722, growth: C-lim chemostat, doubling time 3 h
[4] = wild type E. coli NCM3722, growth: C-lim chemostat, doubling time 6 h
[5] = wild type E. coli NCM3722, growth: N-lim chemostat, doubling time 6 h
[6] = E. coli NCM3722 delta-clpP delta-lon delta-hslV, growth: N-lim chemostat, doubling time 6 h
[7] = E. coli NCM3722 delta-smpB, growth: N-lim chemostat, doubling time 6 h
[8] = E. coli NCM3722 delta-hslV, growth: N-lim chemostat, doubling time 6 h
[9] = wild type E. coli NCM3722, growth: C-lim chemostat, doubling time 12 h
[10] = wild type E. coli NCM3722, growth: P-lim chemostat, doubling time 6 h
[11] = wild type E. coli NCM3722, growth: P-lim chemostat, doubling time 12 h
[12] = wild type E. coli NCM3722, growth: N-lim chemostat, doubling time 12 h

Sequence | total protein half-life in vivo [1] [h] | total protein half-life in vivo [2] [h] | total protein half-life in vivo [3] [h] | total protein half-life in vivo [4] [h] | total protein half-life in vivo [5] [h] | total protein half-life in vivo [6] [h] | total protein half-life in vivo [7] [h] | total protein half-life in vivo [8] [h] | total protein half-life in vivo [9] [h] | total protein half-life in vivo [10] [h] | total protein half-life in vivo [11] [h] | total protein half-life in vivo [12] [h]
MTHIRIEKGTGGWGGPLELKATPGKKIVYITAGTRPAIVDKLAQLTGWQAIDGFKEGEPAEAEIGVAVIDCGGTLRCGIYPKRRIPTINIHSTGKSGPLAQYIVEDIYVSGVKEENITVVGDATPQPSSVGRDYDTSKKITEQSDGLLAKVGMGMGSTVAVLFQSGRDTIDTVLKTILPFMAFVSALIGIIMASGLGDWIAHGLAPLASHPLGLVMLALICSFPLLSPFLGPGAVIAQVIGVLIGVQIGLGNIPPHLALPALFAINAQAACDFIPVGLSLAEARQDTVRVGVPSVLVSRFLTGAPTVLIAWFVSGFIYQ | 5.44 | 5.5 | 2.06 ± 0.099 | 4.93 | 4.5 |  |  |  |  |  |  | 
MTHVCSVILIRRSFDIYHEQQKISLHNESILLLEKNLADDFAFCSPDTRRLDIDELTVCHYLQNIRQLPRNLGLHSKDRLLINQSPPMPLVTAIFDSFNESGVNSPILSNMLYLSCLSMFSHKKELIPLLFNSISTVSGKVERLISFDIAKRWYLRDIAERMYTSESLIKKKLQDENTCFSKILLASRMSMARRLLELRQIPLHTIAEKCGYSSTSYFINTFRQYYGVTPHQFAQHSPGTFS | 1.51 |  |  |  | 0.171 | 5.33 ± 0.16 | 0.628 |  |  |  |  | 
MTIFDNYEVWFVIGSQHLYGPETLRQVTQHAEHVVNALNTEAKLPCKLVLKPLGTTPDEITAICRDANYDDRCAGLVVWLHTFSPAKMWINGLTMLNKPLLQFHTQFNAALPWDSIDMDFMNLNQTAHGGREFGFIGARMRQQHAVVTGHWQDKQAHERIGSWMRQAVSKQDTRHLKVCRFGDNMREVAVTDGDKVAAQIKFGFSVNTWAVGDLVQVVNSISDGDVNALVDEYESCYTMTPATQIHGKKRQNVLEAARIELGMKRFLEQGGFHAFTTTFEDLHGLKQLPGLAVQRLMQQGYGFAGEGDWKTAALLRIMKVMSTGLQGGTSFMEDYTYHFEKGNDLVLGSHMLEVCPSIAAEEKPILDVQHLGIGGKDDPARLIFNTQTGPAIVASLIDLGDRYRLLVNCIDTVKTPHSLPKLPVANALWKAQPDLPTASEAWILAGGAHHTVFSHALNLNDMRQFAEMHDIEITVIDNDTRLPAFKDALRWNEVYYGFRR | 3.03 ± 0.081 | 3.405 ± 0.014 | 2.84 ± 0.36 | 5.77 ± 0.19 | 3.26 | 3.94 ± 0.26 | 3.25 ± 0.17 | 3.07 | 9.63 ± 1.2 | 5.05 ± 0.14 | 11.6 ± 1.2 | 
MTIHKKGQAHWEGDIKRGKGTVSTESGVLNQQPYGFNTRFEGEKGTNPEELIGAAHAACFSMALSLMLGEAGFTPTSIDTTADVSLDKVDAGFAITKIALKSEVAVPGIDASTFDGIIQKAKAGCPVSQVLKAEITLDYQLKS [P0C0L2] | 5.45 ± 0.62 | 5.84 ± 0.083 | 3.08 ± 0.62 | 6.63 ± 0.81 | 5.3 ± 0.28 | 5.71 ± 0.14 | 4.963 ± 0.042 | 5.59 ± 0.41 | 12.1 ± 0.22 | 5.84 ± 0.082 | 12.6 ± 0.93 | 9.59 ± 0.6
MTIKLIVGLANPGAEYAATRHNAGAWFVDLLAERLRAPLREEAKFFGYTSRVTLGGEDVRLLVPTTFMNLSGKAVAAMASFFRINPDEILVAHDELDLPPGVAKFKLGGGHGGHNGLKDIISKLGNNPNFHRLRIGIGHPGDKNKVVGFVLGKPPVSEQKLIDEAIDEAARCTEMWFTDGLTKATNRLHAFKAQ [P0A7D1] |  | 5.04 ± 0.51 | 3.19 ± 0.081 | 6.09 ± 0.37 | 4.81 ± 0.17 | 5.126 ± 0.023 | 4.54 ± 0.08 | 4.76 ± 0.084 | 10.5 ± 0.85 | 5.91 ± 0.13 | 11.4 ± 0.29 | 8.06 ± 0.66
MTILSLSRFMLAGVLLASFNASAIPGFWQQGYGQGNTEYSVTEASGKTFTINCTGNPDQNGFYQHSVFLTLADDKMVSSHDDDTTITVVMDHQQYIIPSSLGWRNGDNAWFDFISNISEAGQFDVYVNDHKAGTFTADRKNAEKVLSTLGDCSND |  |  |  |  |  |  |  |  | 5.33 |  |  | 
MTINFRRNALQLSVAALFSSAFMANAADVPQVKVTVTDKQCEPMTITVNAGKTQFIIQNHSQKALEWEILKGVMVVEERENIAPGFSQKMTANLQPGEYDMTCGLLTNPKGKLIVKGEATADAAQSDALLSLGGAITAYKAYVMAETTQLVTDTKAFTDAIKAGDIEKAKALYAPTRQHYERIEPIAELFSDLDGSIDAREDDYEQKAADPKFTGFHRLEKALFGDNTTKGMDQYAEQLYTDVVDLQKRISELAFPPSKVVGGAAGLIEEVAASKISGEEDRYSHTDLWDFQANVEGSQKIVDLLRPQLQKANPELLAKVDANFKKVDTILAKYRTKDGFETYDKLTDADRNALKGPITALAEDLAQLRGVLGLD [P0AB24] | 4.5 ± 0.11 | 5.84 ± 0.061 | 2.967 ± 0.019 | 6.25 ± 0.72 | 5.73 ± 0.24 | 4.39 ± 0.98 | 4.58 ± 1.5 | 6.43 ± 1.4 | 12.8 ± 0.93 | 5.01 ± 0.35 | 12.2 ± 2.8 | 10.3 ± 0.23
MTISELLQYCMAKPGAEQSVHNDWKATQIKVEDVLFAMVKEVENRPAVSLKTSPELAELLRQQHSDVRPSRHLNKAHWSTVYLDGSLPDSQIYYLVDASYQQAVNLLPEEKRKLLVQL [P0AF50] | 5.39 ± 0.71 | 5.47 ± 0.13 | > 4 | 4.6917 ± 0.0045 | 3.752 ± 0.03 | 6.83 ± 0.78 | 4.39 | 5.05 | 7.14 ± 1.4 | 4.6 ± 1.2 | 9.9 ± 0.1 | 8.4 ± 3
MTITSLDGYRWLKNDIIRGNFQPDEKLRMSLLTSRYALGVGPLREALSQLVAERLVTVVNQKGYRVASMSEQELLDIFDARANMEAMLVSLAIARGGDEWEADVLAKAHLLSKLEACDASEKMLDEWDLRHQAFHTAIVAGCGSHYLLQMRERLFDLAARYRFIWLRRTVLSVEMLEDKHDQHQTLTAAVLARDTARASELMRQHLLTPIPIIQQAMAGN | 2.81 ± 0.13 | 3.54 ± 0.24 | 1.96 ± 0.16 | 3.69 ± 0.43 | 1.99 ± 0.21 | 5.31 ± 0.62 | 2.18 ± 0.088 | 2.106 ± 0.011 | 5.04 ± 0.48 | 1.56 | 3.14 ± 1.1 | 2.52 ± 0.064
MTIWVDADACPNVIKEILYRAAERMQMPLVLVANQSLRVPPSRFIRTLRVAAGFDVADNEIVRQCEAGDLVITADIPLAAEAIEKGAAALNPRGERYTPATIRERLTMRDFMDTLRASGIQTGGPDSLSQRDRQAFAAELEKWWLEVQRSRG [P0A8D3] | 3.08 | 3.89 ± 0.53 | 2.73 ± 0.094 | 4.33 ± 0.21 | 3.55 ± 0.43 | 3.56 ± 0.87 | 3.16 ± 0.032 | 3.2 ± 0.18 | 8.06 ± 2.6 | 5.28 ± 0.43 | 9.109 ± 0.034 | 4.5 ± 0.6
